This is an account of results in publication PMC4175280, “Characterization of proanthocyanidin metabolism in pea (Pisum sativum) seeds” (BMC Plant Biology, 2014).

In data set [1] the target is T1, PsLAR (Lathyrus oleraceus, UniProt A0A076G360).
T1 construct: gene LAR
T1 sequence (A0A076G360 1-351): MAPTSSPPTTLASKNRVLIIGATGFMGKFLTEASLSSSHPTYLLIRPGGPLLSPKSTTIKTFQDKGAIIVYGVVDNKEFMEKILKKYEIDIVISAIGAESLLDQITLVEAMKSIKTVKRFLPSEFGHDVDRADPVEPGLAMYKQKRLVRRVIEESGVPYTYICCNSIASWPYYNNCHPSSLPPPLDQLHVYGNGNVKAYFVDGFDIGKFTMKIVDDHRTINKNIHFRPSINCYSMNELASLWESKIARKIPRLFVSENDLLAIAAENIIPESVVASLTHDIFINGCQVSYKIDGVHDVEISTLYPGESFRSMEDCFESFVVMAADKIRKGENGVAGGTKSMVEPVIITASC
In words: coupled PsDFR/PsLAR assay, LC-MS of product. In kind it is biochemical. Particulars: NADPH, pH 6, 40°C.

Substrate in data set [2]: Oc1cc(O)c2cc(O)c(-c3ccc(O)c(O)c3)[o+]c2c1
In words: HPLC-DAD of cis-flavan-3-ol product, Michaelis-Menten. In kind it is biochemical, Lathyrus oleraceus. Particulars: 20 mM NADPH, 100 mM Tris-HCl pH 7, 42°C, 20 min. From the text:
(§1) HPLC-DAD of cis-flavan-3-ol product, Michaelis-Menten on PsANR

Substrate in data set [3]: Oc1cc(O)c2cc(O)c(-c3cc(O)c(O)c(O)c3)[o+]c2c1
The data set is described as above. In kind it is biochemical, Lathyrus oleraceus. The following applies: 20 mM NADPH, 100 mM Tris-HCl pH 7, 42°C, 20 min.
Source text: as §1

Substrate in data set [4]: Oc1ccc(-c2[o+]c3cc(O)cc(O)c3cc2O)cc1
The description is as above. In kind it is biochemical, Lathyrus oleraceus. Particulars: 20 mM NADPH, 100 mM Tris-HCl pH 7, 42°C, 20 min.
Source text: as §1

In the case of `Oc1cc(O)c2c(c1)O[C@H](c1cc(O)c(O)c(O)c1)[C@@H](O)C2` [gallocatechin], the “coupled PsDFR/PsLAR assay, LC-MS of product” value in data set [1] (substrate made in situ from dihydromyricetin by PsDFR) was “co-incubation of PsDFR and PsLAR could synthesize compounds displaying [M + H]^+ ion for CT”.
With `Oc1cc(O)c2c(c1)O[C@H](c1ccc(O)c(O)c1)[C@@H](O)C2` [(+)-catechin], the “coupled PsDFR/PsLAR assay, LC-MS of product” value in data set [1] (substrate made in situ from dihydroquercetin by PsDFR) is “Only co-incubation of PsDFR and PsLAR could synthesize compounds displaying [M + H]^+ ion for CT”.

B1: PsANR (Lathyrus oleraceus) (protein)
chain: MASIKEVGKKKACVIGGTGFVASILIKQLLEKGYAVNTTVRDLDNPKKISHLVALKSLGELNLFKAELTVDGDFDAPIAGCELVFQLATPVNFASQDPENDMIKPAIKGVLNVLKACAKAKEVKRVILTSSAAAVTINELKGEDHVMDETNWSDVEFLNAAKPPTWGYPASKVLAEKAAWEFAEKNDIDLITVIPTLTMGPYLTQDMPSSVGLAMSLITGNDFLVNALKGMQFLSGSISITHVEDICRAHIFVAEKESASGRYICCAQNTCVPELAKFFSKRYPQYKVPTKFEDCPSKAKLIIFFEKLIKEGFGFKYGIGETYAQTIEYLKIKGVLKK
B1: the Km is 37.0 ± 0.2 µM in data set [2], 183.6 ± 0.2 µM in data set [3] and 39.0 ± 0.1 µM in data set [4]. The kcat/Km turned out to be 13.5 M⁻¹ s⁻¹ in data set [2], 4.3 M⁻¹ s⁻¹ in data set [3] and 30.7 M⁻¹ s⁻¹ in data set [4].
